Assay results as given in publication PMC7995614, “Arabidopsis thaliana 3-mercaptopyruvate sulfurtransferases interact with and are protected by reducing systems” (The Journal of Biological Chemistry, 2021).
Blank lines part the entries; values can stand above or below the molecule they belong to.

What was measured:
[1] = target: T1, STR1 (Arabidopsis thaliana, UniProt O64530, C333S); assay: intrinsic tryptophan fluorescence quenching; format: binding; details: 2 μM protein, 100-fold excess 3-MP, pH 8.0; catalytic Cys variant
T1 construct: untagged (pET28a) or C-terminal His tag (used for Cys variants); E. coli BL21(DE3)
T1 sequence (O64530 57-379 C333S): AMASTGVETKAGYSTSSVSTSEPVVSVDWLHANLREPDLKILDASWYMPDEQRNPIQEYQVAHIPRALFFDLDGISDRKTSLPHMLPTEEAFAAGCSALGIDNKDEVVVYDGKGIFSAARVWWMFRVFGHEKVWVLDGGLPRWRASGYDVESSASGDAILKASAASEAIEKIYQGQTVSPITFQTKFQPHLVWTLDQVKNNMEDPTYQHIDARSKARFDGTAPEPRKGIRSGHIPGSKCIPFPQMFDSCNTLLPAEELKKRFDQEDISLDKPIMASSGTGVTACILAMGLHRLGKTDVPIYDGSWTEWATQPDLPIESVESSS

[2] = target: T2, STR2 (Arabidopsis thaliana, UniProt Q24JL3, C298S); assay: intrinsic tryptophan fluorescence quenching; format: binding; details: 2 μM protein, 100-fold excess 3-MP, pH 8.0; catalytic Cys variant
T2 construct: untagged, pET12a; E. coli BL21(DE3)
T2 sequence (Q24JL3 1-342 C298S limits assumed): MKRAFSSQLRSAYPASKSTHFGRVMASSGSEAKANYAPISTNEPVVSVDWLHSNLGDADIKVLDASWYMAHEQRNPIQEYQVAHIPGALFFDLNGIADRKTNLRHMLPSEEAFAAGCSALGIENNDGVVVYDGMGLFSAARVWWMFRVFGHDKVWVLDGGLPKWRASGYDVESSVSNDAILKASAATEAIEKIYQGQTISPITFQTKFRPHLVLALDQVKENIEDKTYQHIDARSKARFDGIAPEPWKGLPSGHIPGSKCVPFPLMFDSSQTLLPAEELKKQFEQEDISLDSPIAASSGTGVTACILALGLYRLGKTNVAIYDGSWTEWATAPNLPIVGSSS

[3] = target: T3, STR2 (Arabidopsis thaliana, UniProt Q24JL3); assay: intrinsic tryptophan fluorescence quenching; format: binding
T3 construct: untagged, pET12a; E. coli BL21(DE3)
T3 sequence (Q24JL3 1-342 limits assumed): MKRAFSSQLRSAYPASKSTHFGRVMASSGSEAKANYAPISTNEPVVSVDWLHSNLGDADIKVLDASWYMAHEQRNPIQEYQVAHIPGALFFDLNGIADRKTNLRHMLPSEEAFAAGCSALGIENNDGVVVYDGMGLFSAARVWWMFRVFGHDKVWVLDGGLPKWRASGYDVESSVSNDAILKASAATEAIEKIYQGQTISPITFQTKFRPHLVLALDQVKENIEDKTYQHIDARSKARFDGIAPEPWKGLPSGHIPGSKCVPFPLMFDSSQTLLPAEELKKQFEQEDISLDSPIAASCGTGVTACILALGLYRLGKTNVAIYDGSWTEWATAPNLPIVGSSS

[4] = target: T4, STR1 (Arabidopsis thaliana, UniProt O64530); assay: intrinsic tryptophan fluorescence quenching; format: binding
T4 construct: untagged (pET28a) or C-terminal His tag (used for Cys variants); E. coli BL21(DE3)
T4 sequence (O64530 57-379): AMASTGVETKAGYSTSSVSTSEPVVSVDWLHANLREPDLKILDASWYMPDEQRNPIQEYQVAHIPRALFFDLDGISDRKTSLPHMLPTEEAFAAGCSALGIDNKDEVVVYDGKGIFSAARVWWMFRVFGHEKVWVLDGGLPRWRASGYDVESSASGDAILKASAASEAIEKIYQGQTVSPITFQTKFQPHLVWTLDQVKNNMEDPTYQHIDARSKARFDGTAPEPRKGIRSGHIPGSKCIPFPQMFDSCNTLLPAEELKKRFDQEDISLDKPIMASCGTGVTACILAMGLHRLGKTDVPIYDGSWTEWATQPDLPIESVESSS

[5] = system: Cys; details: cited from earlier work
[6] = target: Cys333 (UniProt position 333, PIMASCGTGVT); assay: chemical modification (H2O2 inactivation) with activity readout; details: Not stated for the pH pre-incubation. The activity assay was at 25 °C.; Not stated (100 mM buffers); 100 mM sodium citrate, MES, phosphate or borate buffers for the pre-incubation. Activity assay in 30 mM Tris-HCl pH 8.0.; Reduced enzyme (DTT-reduced and desalted), 2 uM, no substrate during the 3 min pre-incubation
[7] = target: Cys298 (UniProt position 298, PIAASCGTGVT); assay: as above; details: Not stated for the pH pre-incubation. The activity assay was at 25 °C.; Not stated (100 mM buffers); 100 mM sodium citrate, MES, phosphate or borate buffers for the pre-incubation. Activity assay in 30 mM Tris-HCl pH 8.0.; Reduced enzyme (DTT-reduced and desalted), 2 uM, no substrate during the 3 min pre-incubation
[8] = substrate: N[C@@H](CS)C(=O)O; assay: H2S release, methylene blue assay; format: biochemical, Arabidopsis thaliana; details: apparent, sulfur acceptor, 250 μM 3-MP, pH 8.0, 25 °C
From the text: (§1) H2S release, methylene blue assay on STR2

[9] = substrate: O=C(O)C(=O)CS; assay: H2S release, methylene blue assay; format: biochemical, Arabidopsis thaliana; details: apparent, sulfur donor, acceptor 10 μM TRXh1 with NADPH and NTRB, pH 8.0, 25 °C
From the text: as §1

[10] = substrate: N[C@@H](CS)C(=O)O; assay: H2S release, methylene blue assay; format: biochemical, Arabidopsis thaliana; details: apparent, sulfur acceptor, 250 μM 3-MP, pH 8.0, 25 °C; remark: listed apart in the source
From the text: (§2) H2S release, methylene blue assay on STR1

[11] = substrate: O=C(O)C(=O)CS; assay: H2S release, methylene blue assay; format: biochemical, Arabidopsis thaliana; details: apparent, sulfur donor, acceptor 30 μM TRXo1 with NADPH and NTRB, pH 8.0, 25 °C
From the text: as §2

Kd [3]: 700 ± 300 nM
Kd [4]: 1300 ± 900 nM
Molecule: O=C(O)C(=O)CS [3-MP]
intrinsic tryptophan fluorescence quenching [1]: intrinsic fluorescence of both variants also decreased after addition of 3-MP
intrinsic tryptophan fluorescence quenching [2]: intrinsic fluorescence of both variants also decreased after addition of 3-MP

Molecule: 3-mercaptopyruvate sulfurtransferase (human MST) (Homo sapiens)
pKa [5]: 5.2 ± 0.1

Molecule: Sulfurtransferase 1 (STR1), mitochondrial 3-mercaptopyruvate sulfurtransferase (Arabidopsis thaliana)
pKa [6]: 3.8 ± 0.1

Molecule: Sulfurtransferase 2 (STR2), cytosolic 3-mercaptopyruvate sulfurtransferase (Arabidopsis thaliana)
pKa [7]: 4.0 ± 0.1

B1: STR2 (Arabidopsis thaliana) (protein)
chain: MKRAFSSQLRSAYPASKSTHFGRVMASSGSEAKANYAPISTNEPVVSVDWLHSNLGDADIKVLDASWYMAHEQRNPIQEYQVAHIPGALFFDLNGIADRKTNLRHMLPSEEAFAAGCSALGIENNDGVVVYDGMGLFSAARVWWMFRVFGHDKVWVLDGGLPKWRASGYDVESSVSNDAILKASAATEAIEKIYQGQTISPITFQTKFRPHLVLALDQVKENIEDKTYQHIDARSKARFDGIAPEPWKGLPSGHIPGSKCVPFPLMFDSSQTLLPAEELKKQFEQEDISLDSPIAASCGTGVTACILALGLYRLGKTNVAIYDGSWTEWATAPNLPIVGSSS
notes: untagged, pET12a; E. coli BL21(DE3)
Km [8]: 1300 ± 70 µM
kcat [8]: 1.5 s⁻¹
Km [9]: 377 ± 15 µM
kcat [9]: 9.7 s⁻¹

B2: STR1 (Arabidopsis thaliana) (protein)
chain: AMASTGVETKAGYSTSSVSTSEPVVSVDWLHANLREPDLKILDASWYMPDEQRNPIQEYQVAHIPRALFFDLDGISDRKTSLPHMLPTEEAFAAGCSALGIDNKDEVVVYDGKGIFSAARVWWMFRVFGHEKVWVLDGGLPRWRASGYDVESSASGDAILKASAASEAIEKIYQGQTVSPITFQTKFQPHLVWTLDQVKNNMEDPTYQHIDARSKARFDGTAPEPRKGIRSGHIPGSKCIPFPQMFDSCNTLLPAEELKKRFDQEDISLDKPIMASCGTGVTACILAMGLHRLGKTDVPIYDGSWTEWATQPDLPIESVESSS
notes: untagged (pET28a) or C-terminal His tag (used for Cys variants); E. coli BL21(DE3)
Km [10]: 2200 ± 400 µM
kcat [10]: 3.9 s⁻¹
kcat/Km [10]: 1700 M⁻¹ s⁻¹
Km [11]: 286 ± 5 µM
kcat [11]: 13.5 s⁻¹
kcat/Km [11]: 47000 M⁻¹ s⁻¹
